Two molecules from paper PMC11090908, “Aurora-A condensation mediated by BuGZ aids its mitotic centrosome functions” (iScience, 2024) can be followed below.

Assay [1] addresses T1, His-hAurora-A-CD (Aurora-A catalytic domain, 122-403aa) (human, UniProt O14965 122-403).
T1 construct: Cloned into pET-28a at the BamHI site; also called His-Aurora-A-CD; hAurora-CD; source: E. coli Rosetta (DE3), purified
T1 sequence (looked up): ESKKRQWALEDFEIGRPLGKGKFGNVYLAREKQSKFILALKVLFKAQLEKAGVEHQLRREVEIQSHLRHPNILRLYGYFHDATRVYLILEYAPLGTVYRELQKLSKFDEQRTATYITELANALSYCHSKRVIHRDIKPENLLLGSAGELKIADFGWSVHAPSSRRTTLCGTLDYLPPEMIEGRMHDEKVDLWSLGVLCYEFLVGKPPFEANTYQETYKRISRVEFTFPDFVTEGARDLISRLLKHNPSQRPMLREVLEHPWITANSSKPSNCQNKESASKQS
As to the kind of experiment: pull-down; 5 μg His-hAurora-A-CD with 5 μg GST-BuGZ-N or GST on glutathione-agarose, 200 μL 0.1% PBST (Triton X-100), 4°C, 2 h; Western blot and Coomassie. As to conditions: both partners purified. Background: Immunoblotting shows a protein as a band on a membrane.

The target of assay [2] is T2, Aurora-A catalytic domain (CD, 128-403aa), unlabelled, as used in the NMR titration (human, UniProt O14965 128-403).
T2 construct: also called Aurora-A CD; AuroraA Kinase; source: purified
T2 sequence (looked up): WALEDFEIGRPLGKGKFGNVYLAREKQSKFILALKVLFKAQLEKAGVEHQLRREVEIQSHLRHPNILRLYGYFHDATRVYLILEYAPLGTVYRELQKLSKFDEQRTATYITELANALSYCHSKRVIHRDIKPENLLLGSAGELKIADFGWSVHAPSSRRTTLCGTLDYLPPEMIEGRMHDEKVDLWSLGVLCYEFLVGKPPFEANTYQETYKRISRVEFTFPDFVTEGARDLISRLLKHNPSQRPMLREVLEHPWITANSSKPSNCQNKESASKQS
The assay can be described thus: NMR titration; 1H-15N HSQC of labelled Aurora-A IDR (0.1 mM) without and with unlabelled catalytic domain, 1:2 IDR:CD molar ratio; 278 K; 20 mM NaH2PO4, 50 mM NaCl, 2 mM EDTA, 1 mM DTT, pH 6.4. Conditions: both partners purified.

B1: GST-BuGZ-N (hBuGZ N-terminus, 1-92aa) (domain or fragment)
chain: not shown
notes: BuGZ (ZNF207), human, N-terminus with the zinc fingers, residues 1-92; Cloned into pGEX-6P-1 at the EcoRI site; also called GST-BuGZ-N-terminus; source: E. coli Rosetta (DE3), purified
For B1, in assay [1], the binding result is “binds”.

B2: Aurora-A IDR (intrinsic disordered region, 1-127aa) (domain or fragment, human, UniProt O14965 1-127, looked up)
chain: MDRSKENCISGPVKATAPVGGPKRVLVTQQFPCQNPLPVNSGQAQRVLCPSNSSQRIPLQAQKLVSSHKPVQNQKQKQLQATSVPHPVSRPLNNTQKSKQPLPSAPENNPEEELASKQKNEESKKRQ
notes: Aurora-A (Aurora kinase A), human, N-terminal intrinsic disordered region; 1-127aa in the NMR text and legend, 1-126aa in the constructs section; The methods list the construct pET-28a-hAurora-IDR as 1-126aa; the NMR results and legend say 1-127aa; Uniformly isotope-labelled for NMR; also called hAurora-IDR; source: E. coli BL21(DE3), isotope-labelled (15N, 13C), purified, His tag removed by TEV …
Regarding B2, the binding result in assay [2] is recorded as “binds”.
